Measurements: US20190203192A1

Molecular target: VEGF (UniProt P15692)
Experiment: SPR (BIAcore)
Details: Fab

Sequence of VEGF (P15692 other isoform, or with tags, fused parts or gaps): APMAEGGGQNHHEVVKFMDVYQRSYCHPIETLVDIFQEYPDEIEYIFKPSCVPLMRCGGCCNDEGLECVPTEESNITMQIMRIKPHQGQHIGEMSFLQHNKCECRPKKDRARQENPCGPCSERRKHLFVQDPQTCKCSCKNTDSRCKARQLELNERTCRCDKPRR

Substance: anti-VEGF Fab (Lucentics) control
- Kd: 0.103 nM
